According to patent US20220305135A1 (UNIVERSITY OF CHICAGO, published 2022):

What was measured:
[1] = target: T1, extra domain A (EDA) of fibronectin; test: ELISA, EDA coated on plate, Fab titrated, anti-human IgG-HRP detection; apparent Kd by one-site nonlinear regression
T1 chain: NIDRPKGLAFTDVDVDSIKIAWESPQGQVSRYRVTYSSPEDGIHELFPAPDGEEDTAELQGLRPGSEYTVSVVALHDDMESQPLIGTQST

[2] = target: T1, extra domain A (EDA) of fibronectin; test: ELISA on plates coated with 10 µg/mL EDA, detection with HRP anti-human IgG, absorbance at 450 nm [panel C]

B1: Human anti-EDA Fab (Fab, V domains shown)
VH: EVQLLESGGGLVQPGGSLRLSCAASGFTFSVMKMSWVRQAPGKGLEWVSAISGSGGSTYYADSVKGRFTISRDNSKNTLYLQMNSLRAEDTAVYYCAKSTHLYLFDYWGQGTLVTVSS
VL: EIVLTQSPGTLSLSPGERATLSCRASQSVSNAFLAWYQQKPGQAPRLLIYGASSRATGIPDRFSGSGSGTDFTLTISRLEPEDFAVYYCQQMRGRPPTFGQGTKVEIKR
notes: Made recombinantly in HEK-293F cells
- Kd [1]: 50.9 nM
- EC50 (read off the curve) [2]: ~80 nM
